These results are taken from patent publication US20230220084A1 (DRAGONFLY THERAPEUTICS, published 2023).

The target in test [1] is T1, hCLEC12A-His fusion protein (human, UniProt Q5QGZ9 65-265, limits assumed).
T1 construct: Recombinant His-tagged human CLEC12A; also called Human CLEC12A-His; recombinant human CLEC12A
T1 sequence (looked up): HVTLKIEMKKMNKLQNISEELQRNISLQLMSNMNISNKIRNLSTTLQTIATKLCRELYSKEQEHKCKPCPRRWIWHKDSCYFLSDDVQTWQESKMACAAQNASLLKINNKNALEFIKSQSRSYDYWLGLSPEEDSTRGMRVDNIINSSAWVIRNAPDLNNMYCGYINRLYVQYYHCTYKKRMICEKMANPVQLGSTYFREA
In words: SPR 37 C, two-state fit; overall KD of two-state fit, 37 C.

Test [2] concerns the target T1, hCLEC12A-His fusion protein. The experiment in a line: SPR 37 C, two-state fit, kd1; kd1 of two-state fit, 37 C.
The target is the same in test [3]. The experiment in a line: SPR 37 C, two-state fit, kd2.
Test [4] shares this target. The experiment in a line: SPR 37 C, two-state fit, ka1; ka1 of two-state fit, 37 C.

B1: AB0053 (bispecific antibody)
chain: QLQLQESGPGLVKPSETLSLTCTVSGFSLTNYGLHWIRQPPGKCLEWIGVIWSGGKTDYNPSLKSRVTISKDTSKNQFSLKLSSVQAADTAVYYCAKYDYDDALDYWGQGTLVTVSSGGGGSGGGGSGGGGSGGGGSDIQMTQSPSSLSASVGDRVTITCHASQNINFWLSWYQQKPGKAPKLLIYEASNLHTGVPSRFSGSGSGTRFTLTISSLQPEDIATYYCQQSHSYPLTFGCGTKLEIK
In test [1], B1 came in with a Kd of 2.41 nM. Also, the koff was found to be 0.0157 s⁻¹ in test [2] and 0.000949 s⁻¹ in test [3]. Moreover, in test [4], the kon stood at 1.63e+06 M⁻¹ s⁻¹.

The Kd is the constant that tells how readily two partners part at equilibrium. Read a low Kd as tighter binding. Usually koff stands for a measure of how fast the partners let go of each other. As usually defined, the kon is the rate constant with which the complex forms. A lower kon goes with slow association.
